The text below walks through data of patent US20200216495A1 (ADRX, published 2020).

Like-named read-outs stand apart in the source and are kept apart here. Square brackets hold non-standard residues; d marks the D form. Ends that are not written are not given here. Tam = not defined here

Holding throughout (experiment): cell-based or functional assay
Assay [1] addresses T1, His-Tau40 P301L Tau fibrils (human).
T1 chain: RLRIRW

The target in a further assay is Tau40 P301L protein (human).
Assay [2] concerns the target T1, His-Tau40 P301L Tau fibrils.

Consider RRRRRRRRRRGGSGG[dW][dK][dV][dQ][dV][dR][dL][dW] [RRRRRRRRRR-GGSGG-wkvqvrlw], for which the “EC50, HEK cell assay (TauRD(P301S) split luciferase, seeded with tau fibrils)” value (“EC50, HEK cell assay” below) in assay [1] is 2.1 µM.

For RRRRRRRRRRGGSGG[dE][dL][dK][dI][dV][dW] [RRRRRRRRRR-GGSGG-elkivw], the “EC50, HEK cell assay” value in assay [1] stood at 11.7 µM.

With RRRRRRRRRGGSGG[dW][dR][dI][dW][dI][dR][dY][dW] [RRRRRRRRR-GGSGG-wriwiryw], the “EC50, HEK cell assay” value in assay [1] worked out at 0.9 µM.

Take Tam-RRRRRRRRRRGGSGG[dW][dK][dV][dQ][dV][dR][dL][dW] (reading uncertain; also: printed as Tam-RRRRRRRRRR-GGSGG-wkvqvrlw) [Tam-RRRRRRRRRR-GGSGG-wkvqvrlw]: the “IC50, Tau40 assay-Modified peptides (ThT)” value (from here on “IC50 … (ThT)”) with Tau40 P301L protein came out at 5.53 µM. For the same molecule, in assay [2], the “EC50, HEK cell assay” value was 1.5 µM.

RRRRRRRRRRGGSGG[dL][dE][dL][dK][dI][dK][dF][dW] [RRRRRRRRRR-GGSGG-lelkikfw]: in assay [1], the “EC50, HEK cell assay” value worked out at 16.4 µM.

Turning to Tam-RRRRRRRRRRGGSGG[dT][dL][dK][dI][dV][dW] (reading uncertain; also: printed as Tam-RRRRRRRRRR-GGSGG-tlkivw) [Tam-RRRRRRRRRR-GGSGG-tlkivw], the “IC50 … (ThT)” value with Tau40 P301L protein was determined as 4.92 µM. Moreover, in assay [2], the “EC50, HEK cell assay” value was 3.6 µM.

As to Tam-YGRKKRRQRRRGGSGG[dW][dR][dL][dK][dV][dR][dW][dW] (reading uncertain) [Tam-[…]-GGSGG-wrlkvrww], the “IC50 … (ThT)” value with Tau40 P301L protein stood at 6.6 µM. In addition, the “EC50, HEK cell assay” value in assay [2] was 1.8 µM.

Turning to RRRRRRRRRRGGSGG[dW][dR][dL][dK][dV][dR][dW][dW] [RRRRRRRRRR-GGSGG-wrlkvrww], the “EC50, HEK cell assay” value in assay [1] was found to be 2.3 µM; in assay [2] it was 1.7 µM.

On to RRRRRRRRRRGGSGG[dT][dL][dK][dI][dV][dW] [RRRRRRRRRR-GGSGG-tlkivw], for which the “EC50, HEK cell assay” value in assay [1] stood at 2.9 µM.

For the molecule Tam-RRRRRRRRRRGGSGG[dL][dE][dL][dK][dI][dK][dF][dW] (reading uncertain; also: printed as Tam-RRRRRRRRRR-GGSGG-lelkikfw) [Tam-RRRRRRRRRR-GGSGG-lelkikfw], in the assay with Tau40 P301L protein, the “IC50 … (ThT)” value is 8.71 µM. Also, the “EC50, HEK cell assay” value in assay [2] came out at 12.1 µM.

Turning to Tam-RRRRRRRRRGGSGG[dW][dR][dL][dK][dV][dR][dW][dW] (reading uncertain; also: printed as Tam-RRRRRRRRR-GGSGG-wrlkvrww) [Tam-RRRRRRRRR-GGSGG-wrlkvrww], the “IC50 … (ThT)” value with Tau40 P301L protein amounted to 20.5 µM. Also, the “EC50, HEK cell assay” value in assay [2] worked out at 1.5 µM.
